These are literature values, as cited in patent US11878064B2, “Nanoparticle/peptide method of blocking potassium channels” (US Department of the Navy, priority 2019, dated 2024).

Where no end group is shown, it is not given here.

This data set addresses T1, ROMK1 channels (Homo sapiens, UniProt P48048).
T1 sequence (P48048 1-391): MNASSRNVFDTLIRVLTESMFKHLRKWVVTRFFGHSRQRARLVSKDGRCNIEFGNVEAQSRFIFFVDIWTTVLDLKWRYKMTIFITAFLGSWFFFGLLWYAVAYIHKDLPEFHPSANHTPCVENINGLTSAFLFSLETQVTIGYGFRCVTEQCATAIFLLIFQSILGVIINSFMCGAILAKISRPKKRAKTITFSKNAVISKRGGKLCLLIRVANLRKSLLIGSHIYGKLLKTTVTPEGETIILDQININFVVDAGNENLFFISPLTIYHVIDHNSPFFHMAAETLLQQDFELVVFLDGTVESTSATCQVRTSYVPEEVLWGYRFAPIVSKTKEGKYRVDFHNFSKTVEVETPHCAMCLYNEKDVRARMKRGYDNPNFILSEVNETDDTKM
The note with it: read-out: binding affinity.

For the substance “tertiapin (ALCNCNRIIIPHMCWKKCGKK; ends and bridges not checked; cysteine pairing not given here; UniProt P56587 1-21, looked up) [TPN]”, the Kd was roughly 2 nM.
